# Laboratory results as given in article PMC10803429.
# Molecular target: SpyTag-VP2 (N-terminal SpyTag chimera of the major structural protein VP2 of parvovirus B19) (not stated | parvovirus B19)
# Experiment: SEC + other: light scattering (MALS, Zetasizer Ultra); different amounts of SpyTag-VP2 (2.5-60 mL of 0.142 mg/mL) loaded on a 5-mL HisTrap HP column; peak run on Sephacryl 300-HR in 2 M GdnHCl buffer; fractions of 18-28 nm pooled, BCA
substance,measurement,value
SpyTag-VP2 (N-terminal SpyTag chimera of the major structural protein VP2 of parvovirus B19),percent of the loaded protein recovered as VLPs,95%
